# Reference: the supplement of paper PMC12042874
# ± gives the uncertainty stated by the source.
# Assay: amyloid nucleation score (Sup35N fusion, yeast selection) (log enrichment); library NNK1; higher = more nucleation; inactive = no reads after selection
# How it was run: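 DiMSum was used to calculate nucleation scores as log enrichment of output over input reads, centred on the mode score of non-aggregating sequences. Sequences with fewer than 100 input reads were not scored. Input and output came from Illumina sequencing of plasmid inserts in psi-negative yeast expressing peptides of 20 random codons fused to Sup35N, induced 24 hours with 100 μM copper sulfate and then grown 7 days at 30°C on medium lacking adenine and uracil.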
row,Substance,amyloid nucleation score
1,LNICGIWGGVVSEGARNVFY,0.063 ± 0.33
2,LNLVRLYVTSKCSLDATSVI,-0.444 ± 1.2
3,LNNRE,0.805 ± 0.78
4,LNNYCCYIAKYVYWW,6.089 ± 0.044
5,LNRGYAGFSLN,-1.86 ± 1.1
6,LNRLSFLV,0.065 ± 1.2
7,LNRVLMTIWCTPMSICTYDC,3.89 ± 0.12
8,LNSGASMLWQTLSYPMSRVR,-0.506 ± 1.2
9,LNSIMQIQVWIFTLEMMSPM,-1.07 ± 0.98
10,LNTQVRVGDKVCLRIFARLL,0.944 ± 0.9
11,LNVNRWYTISL,0.972 ± 0.25
12,LNWVLFADLLWPR,0.212 ± 0.57
13,LPAGSDVCLY,3.23 ± 0.13
14,LPDIGCFPRTIGCMTQAECG,-0.381 ± 1
15,LPFSLFSLD,0.308 ± 0.42
16,LPHYNMLSPRIIRTLVVERF,0.694 ± 1.1
17,LPPARIFEGRSICYFVWYLP,0.232 ± 0.7
18,LPSNFCVKLSSTYYQVFG,-2.37 ± 1.8
19,LPSSSPMTRR,-0.837 ± 1.7
20,LPTIHICLRSAHTRWFA,-0.438 ± 0.87
21,LPVFELSHTHSVKSLDGNGQ,-0.308 ± 0.33
22,LQERWMAMGGGGQGVVWGFT,0.305 ± 0.79

row,Substance,amyloid nucleation score
1,LQGSVIYLNIKSLGEGVWLF,3.44 ± 0.17
2,LQIYCAPGFV,0.38 ± 1.2
3,LQKFMLV,0.638 ± 0.53
4,LQKIMQKISPIFRNRIYVRR,-0.327 ± 0.48
5,LQKRANNRRC,-0.372 ± 0.5
6,LQPNLMEGAMSSGGTEEVTV,-0.565 ± 1.4
7,LQTIYFLYE,2.25 ± 0.13
8,LQYGGQVISLNNR,1.97 ± 0.72
9,LRALSYWIPARTPIVEGYAK,-0.333 ± 0.32
10,LRCSLDGFFGLDWLANLILD,-0.115 ± 0.23
11,LREECKVAWYLNGDCVVYCK,inactive
12,LRENPQLGVVTGLTLGSDLP,0.19 ± 0.5
13,LRFPLARNHTGYQTGVTEFT,-0.526 ± 0.32
14,LRGEDNLLWCVISMTL,inactive
15,LRHMLIAAFSDWVKYWGCAR,0.194 ± 0.51
16,LRMKVINRNPWVKTLSFVLA,-0.297 ± 1.1
17,LRNVYMCVQWGFMVETGASC,3.35 ± 0.16
18,LRREVINWDQRFSFLKSFTW,2.89 ± 0.15
19,LRRLRTSYMLRAVLKLFLQP,0.956 ± 0.58
20,LRRLSMA,inactive
21,LRSCMRGGRKYRDS,-0.903 ± 0.58
22,LRSKFRCLSILVRMVIIDCF,0.457 ± 0.62

row,Substance,amyloid nucleation score
1,LRSNHWNHTCLHNIRGCS,3.42 ± 0.071
2,LRSSWRTSIWHTWLWPYGDW,0.287 ± 0.87
3,LRTCIVGKLNQTTEILCGSS,1.14 ± 0.73
4,LRTLPHYNV,0.596 ± 1.2
5,LRTMGISCDWETFDLDINKG,inactive
6,LRWYTQGMVLLEDRPCRCYN,-1.01 ± 0.41
7,LRYILFKNPSPNNIESL,-0.194 ± 0.53
8,LRYLGMMVRREKIEVINLNY,0.329 ± 1.4
9,LRYLQQWYST,2.67 ± 0.19
10,LSCQTPQSDEMSVAESAWAY,-1.18 ± 1.2
11,LSEKYTIPVLFHVLKIITGI,0.495 ± 0.45
12,LSFCDTQRMWSSDG,0.483 ± 0.85
13,LSGPCNFYQHSVSWCLCTYA,0.764 ± 0.88
14,LSGWRYMVKA,0.039 ± 0.41
15,LSHWAIVFVICGPRSKKGGS,-0.115 ± 1
16,LSHWHGCCKSHRYIQF,0.244 ± 0.3
17,LSIWFFVYVLVG,0.043 ± 0.78
18,LSNFLHCG,0.907 ± 0.4
19,LSNRVLEGFNSSWYISIRGF,-0.434 ± 1.7
20,LSPGYSHTN,-0.423 ± 0.6
21,LSPLNVKIDSSFVFYIIRLK,-0.178 ± 0.36
22,LSPSCCCFYVLGIVT,3.57 ± 0.081

row,Substance,amyloid nucleation score
1,LSQLN,-0.116 ± 0.26
2,LSRDHCKNLNLNP,-0.084 ± 1.1
3,LSRNVVGAFGSGHWRADRAA,0.256 ± 0.64
4,LSRPTYSRMHIWISCHLIVV,-0.707 ± 1.7
5,LSRSYYNQFLTDFKGSGTYM,-0.269 ± 0.64
6,LSSPLLS,0.66 ± 0.44
7,LSTGWESNLEGCCENWGGLK,-0.499 ± 0.29
8,LSTYTMLF,-0.168 ± 0.28
9,LSVGKKDS,-0.292 ± 0.23
10,LSVYA,0.612 ± 0.45
11,LSYCVIG,inactive
12,LSYKIKDT,0.626 ± 0.72
13,LSYSWADSAPLCCTPMRGRG,-0.324 ± 0.37
14,LTAIFSRIFNI,-0.997 ± 1.4
15,LTAYLRGTDSGPERSWRCAS,-0.209 ± 0.88
16,LTGSISD,1.17 ± 0.73
17,LTHWTQHMF,-0.37 ± 0.87
18,LTHYEFGTFFYKVWSNDRHK,3.35 ± 0.062
19,LTMGRKMVPYHLVSAMMGTV,-0.114 ± 0.57
20,LTMPYAI,inactive
21,LTNIYLVRMT,5.26 ± 0.071
22,LTNRSLIVRDWCTSTYPNPS,0.08 ± 0.53
